Experimental data taken from paper PMC7954794, “Protein context shapes the specificity of SH3 domain-mediated interactions in vivo” (Nature Communications, 2021).

Test system: Abp1 PPIs
Assay: DHFR-PCA of Abp1 SH3-swapped baits (Fig. 2B-D, S2C, S2F);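 on Protein-protein interaction distance between Abp1 SH3-swapped baits, to ABP1: Euclidean distance between DHFR-PCA score profiles of the baits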;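 on Protein-protein interaction distance between Abp1 SH3-swapped baits, to BEM1-2: Euclidean distance between DHFR-PCA score profiles of the baits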;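 on Protein-protein interaction distance between Abp1 SH3-swapped baits, to BOI1: Euclidean distance between DHFR-PCA score profiles of the baits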;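 on Protein-protein interaction distance between Abp1 SH3-swapped baits, to BZZ1-1: Euclidean distance between DHFR-PCA score profiles of the baits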
Type: cell-based, Saccharomyces cerevisiae
How it was run: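 Interactions were scored by DHFR protein-fragment complementation. DHFR F[1,2]-tagged Abp1 strains, whose SH3 was swapped for yeast or human ortholog domains, were crossed on YPD at 30 °C for 48 h with a 1536-format array of 575 prey-DHFR F[3] strains and 40 negatives, giving four replicates per pair. PCA selection lasted 4 days after double diploid selection.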

[1] = number of PPIs, difference, Abp1 SH3-swapped with the listed SH3, Fig2D,S2F

B1: MYO3 (protein, UniProt P36006 1-1272, looked up)
Myosin-3: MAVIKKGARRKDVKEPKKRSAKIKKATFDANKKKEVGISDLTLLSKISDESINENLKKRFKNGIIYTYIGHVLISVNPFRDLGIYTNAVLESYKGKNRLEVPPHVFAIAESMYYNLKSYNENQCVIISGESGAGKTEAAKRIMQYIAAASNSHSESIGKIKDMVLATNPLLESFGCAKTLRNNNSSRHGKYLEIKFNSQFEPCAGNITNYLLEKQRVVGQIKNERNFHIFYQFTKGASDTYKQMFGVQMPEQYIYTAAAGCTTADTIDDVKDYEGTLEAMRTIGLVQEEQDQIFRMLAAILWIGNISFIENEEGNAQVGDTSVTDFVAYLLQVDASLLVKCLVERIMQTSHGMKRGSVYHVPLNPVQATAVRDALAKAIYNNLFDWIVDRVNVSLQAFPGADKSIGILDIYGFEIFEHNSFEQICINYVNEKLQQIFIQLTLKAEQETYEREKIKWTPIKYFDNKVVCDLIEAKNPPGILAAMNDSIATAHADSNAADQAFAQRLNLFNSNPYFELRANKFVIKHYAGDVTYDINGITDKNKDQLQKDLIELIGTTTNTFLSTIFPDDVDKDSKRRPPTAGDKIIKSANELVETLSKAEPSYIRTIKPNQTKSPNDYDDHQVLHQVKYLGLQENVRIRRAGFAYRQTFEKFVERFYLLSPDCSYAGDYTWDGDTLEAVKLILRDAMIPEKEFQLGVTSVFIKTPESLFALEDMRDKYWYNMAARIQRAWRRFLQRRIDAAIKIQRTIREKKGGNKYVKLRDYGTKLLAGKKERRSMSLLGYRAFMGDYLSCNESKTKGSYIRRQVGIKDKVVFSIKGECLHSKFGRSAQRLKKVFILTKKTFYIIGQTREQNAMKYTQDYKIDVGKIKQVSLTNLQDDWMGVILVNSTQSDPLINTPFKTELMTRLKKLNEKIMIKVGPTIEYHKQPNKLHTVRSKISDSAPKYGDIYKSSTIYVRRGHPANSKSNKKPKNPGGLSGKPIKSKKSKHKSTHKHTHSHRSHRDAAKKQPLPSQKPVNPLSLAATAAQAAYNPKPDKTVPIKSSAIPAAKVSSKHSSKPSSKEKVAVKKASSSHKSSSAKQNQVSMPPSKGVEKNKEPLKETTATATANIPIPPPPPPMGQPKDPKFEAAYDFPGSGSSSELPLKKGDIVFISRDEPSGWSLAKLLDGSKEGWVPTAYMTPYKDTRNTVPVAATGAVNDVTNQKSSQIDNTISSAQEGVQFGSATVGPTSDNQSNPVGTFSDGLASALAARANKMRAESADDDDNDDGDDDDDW
Protein-protein interaction distance between Abp1 SH3-swapped baits, to ABP1 (Abp1 bait with swapped SH3, distance to bait with ABP1 SH3, sheet Fig2C): 12.85 | Protein-protein interaction distance between Abp1 SH3-swapped baits, to BBC1 (distance to Abp1 bait with BBC1 SH3, sheet Fig2C): 13.06 | Protein-protein interaction distance between Abp1 SH3-swapped baits, to BEM1-1 (distance to Abp1 bait with BEM1-1 SH3, sheet Fig2C): 17.48 | Protein-protein interaction distance between Abp1 SH3-swapped baits, to BEM1-2 (distance to Abp1 bait with BEM1-2 SH3, sheet Fig2C): 35.25 | Protein-protein interaction distance between Abp1 SH3-swapped baits, to BOI1 (distance to Abp1 bait with BOI1 SH3, sheet Fig2C): 14.63 | Protein-protein interaction distance between Abp1 SH3-swapped baits, to BOI2 (distance to Abp1 bait with BOI2 SH3, sheet Fig2C): 17.97 | Protein-protein interaction distance between Abp1 SH3-swapped baits, to BUD14 (distance to Abp1 bait with BUD14 SH3, sheet Fig2C): 20.78 | Protein-protein interaction distance between Abp1 SH3-swapped baits, to BZZ1-1 (distance to Abp1 bait with BZZ1-1 SH3, sheet Fig2C): 10.1 | Protein-protein interaction distance between Abp1 SH3-swapped baits, to BZZ1-2 (distance to Abp1 bait with BZZ1-2 SH3, sheet Fig2C): 14.12 | Protein-protein interaction distance between Abp1 SH3-swapped baits, to CDC25 (distance to Abp1 bait with CDC25 SH3, sheet Fig2C): 29.41 | Protein-protein interaction distance between Abp1 SH3-swapped baits, to CTTN (distance to Abp1 bait with CTTN SH3, sheet Fig2C): 15.21 | Protein-protein interaction distance between Abp1 SH3-swapped baits, to CYK3 (distance to Abp1 bait with CYK3 SH3, sheet Fig2C): 30.11 | Protein-protein interaction distance between Abp1 SH3-swapped baits, to DBNL (distance to Abp1 bait with DBNL SH3, sheet Fig2C): 10.74 | Protein-protein interaction distance between Abp1 SH3-swapped baits, to FUS1 (distance to Abp1 bait with FUS1 SH3, sheet Fig2C): 21.97 | Protein-protein interaction distance between Abp1 SH3-swapped baits, to HCLS1 (distance to Abp1 bait with HCLS1 SH3, sheet Fig2C): 11.19 | Protein-protein interaction distance between Abp1 SH3-swapped baits, to HOF1 (distance to Abp1 bait with HOF1 SH3, sheet Fig2C): 33.94 | Protein-protein interaction distance between Abp1 SH3-swapped baits, to HSE1 (distance to Abp1 bait with HSE1 SH3, sheet Fig2C): 11.17 | Protein-protein interaction distance between Abp1 SH3-swapped baits, to LSB1 (distance to Abp1 bait with LSB1 SH3, sheet Fig2C): 9.135 | Protein-protein interaction distance between Abp1 SH3-swapped baits, to LSB3 (distance to Abp1 bait with LSB3 SH3, sheet Fig2C): 9.625 | Protein-protein interaction distance between Abp1 SH3-swapped baits, to MYO3 (distance to Abp1 bait with MYO3 SH3, sheet Fig2C): 0.00 | Protein-protein interaction distance between Abp1 SH3-swapped baits, to MYO5 (distance to Abp1 bait with MYO5 SH3, sheet Fig2C): 5.861 | Protein-protein interaction distance between Abp1 SH3-swapped baits, to NBP2 (distance to Abp1 bait with NBP2 SH3, sheet Fig2C): 19.88 | Protein-protein interaction distance between Abp1 SH3-swapped baits, to PEX13 (distance to Abp1 bait with PEX13 SH3, sheet Fig2C): 8.874 | Protein-protein interaction distance between Abp1 SH3-swapped baits, to PIN3 (distance to Abp1 bait with PIN3 SH3, sheet Fig2C): 8.374 | Protein-protein interaction distance between Abp1 SH3-swapped baits, to RVS167 (distance to Abp1 bait with RVS167 SH3, sheet Fig2C): 9.049 | Protein-protein interaction distance between Abp1 SH3-swapped baits, to SDC25 (distance to Abp1 bait with SDC25 SH3, sheet Fig2C): 35.91 | Protein-protein interaction distance between Abp1 SH3-swapped baits, to SHO1 (distance to Abp1 bait with SHO1 SH3, sheet Fig2C): 10.66 | Protein-protein interaction distance between Abp1 SH3-swapped baits, to SLA1-1 (distance to Abp1 bait with SLA1-1 SH3, sheet Fig2C): 31.98 | Protein-protein interaction distance between Abp1 SH3-swapped baits, to SLA1-2 (distance to Abp1 bait with SLA1-2 SH3, sheet Fig2C): 22.64 | Protein-protein interaction distance between Abp1 SH3-swapped baits, to SLA1-3 (distance to Abp1 bait with SLA1-3 SH3, sheet Fig2C): 9.056 | Protein-protein interaction distance between Abp1 SH3-swapped baits, to YSC84 (distance to Abp1 bait with YSC84 SH3, sheet Fig2C): 9.995 | PPIs gained by Abp1 - SH3-dependent PPIs gained by Abp1 [1]: 24 | SH3-dependent PPIs - SH3-dependent PPIs gained by Abp1 [1]: 13 | SH3-dependent PPIs gained by Abp1 (number of PPIs, Abp1 SH3-swapped with the listed SH3, DHFR-PCA, Fig2D,S2F): 4
